Assay results as given in patent US20240374744.

System: huHF(+)-DOX (huHF(+) protein nanoparticle-doxorubicin conjugate)
Sequence (chain, as listed by the source): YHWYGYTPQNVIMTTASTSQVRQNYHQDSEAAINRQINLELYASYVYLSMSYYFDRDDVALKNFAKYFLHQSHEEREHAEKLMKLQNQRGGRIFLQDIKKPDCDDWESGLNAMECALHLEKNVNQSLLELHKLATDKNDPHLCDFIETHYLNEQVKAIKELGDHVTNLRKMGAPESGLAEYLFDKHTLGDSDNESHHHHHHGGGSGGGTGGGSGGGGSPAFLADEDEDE

| Substance | cleavage of the conjugate and release of doxorubicin (native-PAGE, UV absorbance), enzyme in LPM mixture | cleavage of the conjugate and release of doxorubicin (native-PAGE, Coomassie staining, UV absorbance of doxorubicin) |
| --- | --- | --- |
| cathepsin B | it was observed that the peptide was not specifically cleaved thereby the drug was not selectively released |  |
| cathepsin D | it was observed that the peptide was not specifically cleaved thereby the drug was not selectively released |  |
| cathepsin E |  | From 3 hours after staining, it was visually observed that the portion to which the anticancer drug was bound in the conjugate was effectively cleaved by cathepsin E |
| cathepsin L | it was observed that the peptide was not specifically cleaved thereby the drug was not selectively released |  |
